In patent US20030180282A1, “Method of treatment of thrombotic events” (priority 2002, published 2003):

Experiments:
platelets [1] = assay: PFA-100 platelet function analyzer, closure time; type: cell-based, human; conditions: TNK 12 μg/mL, t-PA 4 μg/mL
Method: (§1) Blood samples for the in vitro study were obtained from 9 healthy volunteers. None of the subjects smoked or had hypertension, diabetes, or an abnormal hematocrit. None had received aspirin or any other antiplatelet drugs. All subjects underwent blood sampling after at least 30 minutes of rest and 2 or more hours of fasting. Blood was drawn from an antecubital vein between 8 am and 10 am in order to avoid any diurnal influence. A 21-gauge butterfly needle was used to draw blood into a tube containing 3.8% sodium citrate (1:9 volume); the first 1.5 mL of free running blood was discarded. One tube was kept as an internal control. A second tube was incubated with tenecteplase (TNK) for 30 minutes at room temperature in order to achieve a final concentration of 12 μg/mL. The third tube was similarly incubated with alteplase (t-PA) to achieve a concentration of 4 μg/mL. The concentrations of TNK and t-PA that were chosen approximated conventional plasma levels observed in patients receiving TNK and t-PA bolus (30 mg, and 15 mg, respectively; data on file, Genentech, Inc., South San Francisco, Calif.). Fresh solutions of TNK and t-PA were prepared in Dulbecco's phosphate buffered saline (DPBS) ex tempore on the morning of the platelet studies.
The PFA-100™ (Dade Behring, Deerfield, Ill.) is a high shear-inducing platelet function analyzer that simulates primary hemostasis after injury to a small vessel under flow conditions (see, e.g. Kundu, S. K. et al. (1996) Clin. Appl. Thromb. Hemost. 2:241-249). The device provides a constant negative pressure that aspirates a whole blood-citrate mixture, which comes into contact with a collagen-coated membrane and then passes through an aperture. The time required to obtain occlusion of the aperture is digitally recorded and is a measure of shear-induced platelet aggregation.
For all comparisons, statistical analyses were done by using repeated measures ANOVA. […] Normally distributed data were expressed as mean±SE, and skewed data as median (range). […]

platelets [2] = assay: in vitro whole blood flow cytometry of platelet receptors and platelet-monocyte aggregates; type: cell-based, human; conditions: TNK 12 μg/mL, t-PA 4 μg/mL
Method: as §1
The surface expression of platelet receptors was determined by flow cytometry by using the following monoclonal antibodies: CD 41 (glycoprotein [GP] IIb/IIIa, α IIbβ3) CD 42b (GP Ib), CD 62p (P-selectin), CD 51/CD 61 (αvβ3, or vitronectin receptor), CD 31 (platelet endothelial cell adhesion molecule [PECAM]-1), CD 107a (LAMP-1), CD 107b (LAMP-2), CD 63 (LIMP or LAMP-3), and CD 151 (PETA-3) (PharMingen, San Diego, Calif.). Platelet-leukocyte interactions were assessed by using dual antibodies for a pan-platelet marker (CD 41), together with CD 14, a monocyte/macrophage marker. The blood-citrate mixture (50 μl) was diluted with 450 μl Tris buffered saline (TBS) (10 mmol/L Tris, 0.15 mol/L sodium chloride) and mixed by gently inverting an Eppendorf tube 2 times. The corresponding antibody was then added (5 μl) and incubated at 4° C. for 30 minutes. After incubation, 400 μl of 2% buffered paraformaldehyde was added for fixation. The samples were analyzed on a Becton Dickinson FACScan flow cytometer set up to measure fluorescent light scatter, as previously described. All parameters were collected by using 4-decade logarithmic amplification. The data were collected in list mode files and then analyzed. P-selectin was expressed as percent positive cells. Other antigens were expressed as log mean fluorescence intensity.
(§2) For all comparisons, statistical analyses were done by using repeated measures ANOVA. Post hoc comparison was performed by use of the Bonferroni t-test to identify specific differences in platelet aggregation and receptor expression between patients treated with TNK and t-PA, and controls. The Mann-Whitney U test was used to analyze non-parametric data. Normally distributed data were expressed as mean±SE, and skewed data as median (range). Probability values of P<0.05 were regarded as statistically significant. Linear regression analysis was applied to normally distributed data for all study participants by using the Statview 4.1 program for analysis.

[3] = tested on: platelet-derived biomarkers; assay: ASSENT-2 platelet substudy: ELISA of platelet-derived biomarkers in plasma of AMI patients; type: in vivo, human
Method: Forty-one patients with ST-segment elevation AMI enrolled in a single ASSENT-2 site (Rashid Hospital, Dubai, United Arab Emirates) were studied. The inclusion and exclusion criteria of ASSENT-2 have been previously reported ([no authors listed] (1999) Lancet 354:716-722). Briefly, patients included in the trial were between 18 and 70 years of age and were seen within 6 hours of symptom onset with >30 minutes of continuous symptoms. […] After informed consent was obtained, 7 serum samples were drawn. Samples were collected at baseline and at 30-minute intervals during a 180-minute period. Within 15 minutes of sample acquisition, plasma was separated by centrifugation at 800 g for 10 minutes, aspirated, placed in vials, and snapped frozen at −20° C.
Enzyme-linked immunosorbent assay (ELISA) was used according to standard sandwich techniques for CD 31 (sPECAM-1), sVACAM-1, sP-selectin, (R&D Systems Inc. Minneapolis, Minn.), beta-thromboglobulin, Asserachrom® (Diagnostica Stago Inc., Parsippany, N.J.), platelet factor 4 Asserachrom®, thromboxane, and prostacyclin (Cayman Chemical Co., MI). Each sample was measured in duplicate, and the overall intra-assay coefficient of variation was between 3.1%±0.4% and 7.6%±1.0%, with a plasma recovery rate between 89.7% and 98.7%.
as §2
In the ASSENT-2 Platelet Substudy, 21 of the 41 patients enrolled received TNK (30-50 mg), while the remaining 20 received t-PA (40-85 mg). There were no substantial differences in baseline characteristics for the AMI patients.

platelets [4] = assay: rapid platelet-function assay (Ultegra); type: cell-based, human; conditions: TNK 12 μg/mL, t-PA 4 μg/mL
Method: as §1
With rapid platelet-function assay (RPFA (Ultegra®); Accumetrics, Inc., San Diego, Calif.), polystyrene beads coated with fibrinogen are placed in a cartridge along with a peptide that activates the thrombin receptor. A whole blood citrate mixture is added to the cartridge, and agglutination between platelets and coated beads is recorded. The data mirror turbidometric platelet aggregation and reflect the degree of platelet glycoprotein IIb/IIIa blockade.
For all comparisons, statistical analyses were done by using repeated measures ANOVA. Post hoc comparison was performed by use of the Bonferroni t-test to identify specific differences in platelet aggregation and receptor expression between patients treated with TNK and t-PA, and controls. […] Normally distributed data were expressed as mean±SE, and skewed data as median (range). […]

[5] = "accelerated" regimen, GUSTO trial; cited from earlier work

B1: t-PA: recombinant tissue plasminogen activator, thrombolytic agent (Genentech) (protein, UniProt P00750 36-562, looked up)
Tissue-type plasminogen …: SYQVICRDEKTQMIYQQHQSWLRPVLRSNRVEYCWCNSGRAQCHSVPVKSCSEPRCFNGGTCQQALYFSDFVCQCPEGFAGKCCEIDTRATCYEDQGISYRGTWSTAESGAECTNWNSSALAQKPYSGRRPDAIRLGLGNHNYCRNPDRDSKPWCYVFKAGKYSSEFCSTPACSEGNSDCYFGNGSAYRGTHSLTESGASCLPWNSMILIGKVYTAQNPSAQALGLGKHNYCRNPDGDAKPWCHVLKNRRLTWEYCDVPSCSTCGLRQYSQPQFRIKGGLFADIASHPWQAAIFAKHRRSPGERFLCGGILISSCWILSAAHCFQERFPPHHLTVILGRTYRVVPGEEEQKFEVEKYIVHKEFDDDTYDNDIALLQLKSDSSRCAQESSVVRTVCLPPADLQLPDWTECELSGYGKHEALSPFYSERLKEAHVRLYPSSRCTSQHLLNRTVTDNMLCAGDTRSGGPQANLHDACQGDSGGPLVCLNDGRMTLVGIISWGLGCGQKDVPGVYTKVTNYLDWIRDNMRP
- closure time (PFA-100) compared with DPBS (platelets [1]): prolongation
- expression of PECAM-1 compared with saline-treated samples (platelets [2]): trend toward diminished expression
- expression of glycoprotein IIb/IIIa compared with saline-treated samples (platelets [2]): reduced expression
- formation of platelet-monocyte aggregates compared with saline-treated samples (platelets [2]): trend toward diminished
- P-selectin plasma concentrations, course ([3]; 180-minute period): increase steadily
- plasma levels of PECAM-1 ([3]; AMI patients after thrombolysis): not in t-PA-treated patients
- release of substances from platelets (plasma biomarkers) ([3]; TNK 30-50 mg, t-PA 40-85 mg, 180-minute period): decreased release
- vascular cell adhesion molecule-1 (VCAM-1) release ([3]; after 90 minutes): no marked changes
- concentrations of α-granule constituents ([3]; to a lesser extent than TNK): Decreased concentrations
- platelet activation units (Ultegra) compared with DPBS (platelets [4]): reduction
- benefit in mortality reduction [5]: further benefit
